Assay: soluble on expression in E. coli; label from the status in PepcDB or PDB records

| Sequence | soluble on expression in E. coli |
| --- | --- |
| MTGALNQAQKTPWRYGFLNLMRRVDAQLCDTPAGSIWQPRMEKFRLGQTPTMTFAPREIAQVSWQDGRLHLSLYSLGLWGPNGPLPLHYTELALNRSESRHDPTLVHFSNIFHHRWLTQFWQAWRSAQSAGGGLDKPEHDRFAFYIASLSGQDLRESAESPLSDHVRLAASAHLVRESRNPDGLAATLAHYFSVPFAVKEFALHWITVANDEITRLGTPAQSSVLGNGALIGQAVPDMQYKFRLIIGPLTLEDYLRFLPGGNNLPVLTELVRTFIGFEYCWEIELQLKPHAAPPAVIGGAQRLGWTAWAGKAMHDRPVTGMIFEPEHGLTH | not soluble |
| MTGGTGADAASAGASSTRPELRGERCLPPAGPVKVTPDDPRYLNLKLRGANSRFNGEPDYIHLVGSTQQVADAVEETVRTGKRVAVRSGGHCFEDFVDNPDVKVIIDMSLLTEIAYDPSMNAFLIEPGNTLSEVYEKLYLGWNVTIPGGVCGGVGVGGHICGGGYGPLSRQFGSVVDYLYAVEVVVVNKQGKARVIVATRERDDPHHDLWWAHTGGGGGNFGVVTKYWMRVPEDVGRNPERLLPKPPATLLTSTVTFDWAGMTEAAFSRLLRNHGEWYERNSGPDSPYTGLWSQLMIGNEVPGMGESGFMMPIQVDATRPDARRLLDAHIEAVIDGVPPAEVPEPIEQRWLASTPGRGGRGPASKTKAGYLRKRLTDRQIQAVYENMTHMDGIDYGAVWLIGYGGKVNTVDPAATALPQRDAILKVNYITGWANPGNEAKHLTWVRKLYADVYAETGGVPVPNDVSDGAYINYPDSDLADPGLNTSGVPWHDLYYKGNHPRLRKVKAAYDPRNHFHHALSIRP | soluble |
| MTGHRPACPPIPADVYTRLERRIGRCHLNQRLGIEHDFEARIFGQGRTFFHIENWNRLHTLLRRLLKLSLLYRPGQRAARRIEIRRNEFTLPHLPEAFEGYTLLHISDLHLDMAGDLPDALIRAIGQAGHYDACVLTGDFRARTFGPYRGAIDGLAQVRTHIDKPVFAILGNHDTIRMTPEIEDLGIGVLLNEAREIRQDGASIFLAGVDDPHYYRADNIEKAADPIPQGAVSILLSHSPELYRHAAYADFDIMLCGHTHGGQICLPGGIALTLNARCPRAFGRGYWRYHRMQGYTSAGSGVSILDIRLNCPPEITLHRLSRHRLSKGGCECGGGKGLEHHHHHH | soluble |
| MTGKLYGNKDNFRTQKVLIAAKLANKTVTLAGDAAPADKFPLGVTPAFEGDALLFGAESIGLHLTGTSANAETVQWLQFAEGYLLPAVLGYVLPSVSAANFDKKTVEQYKNELNGQLQVLDRVLVKKTYLVGERLSLADVSVALDLLPAFQYVLDANARKSIVNVTRWFRTVVNQPAVKEVLGEVSLASSVAQFNQAKFTELSAKVAKSAPKAEKPKKEAKPAAAAAQPEDDEPKEEKSKDPFQDMPKGTFVLDNFKRSYSNEDTATKAIPHFWENFDADNWSIWKCEYKYPEDLTLAFMSCNLINGMYQRLEKLKKNAFASMILFGTDNNSTISGIWVWKGDKLAFELSPDWQVDYESYTWTKLDAKSDATKKEVNEYLMWEGDFGGKKFNQGKIFK | soluble |
| MTGSATRFGGSPGPVFALEKGERVEQMKLFKTYKEQVELLGQRGMQIDNSERAEKLLAQLNYYRLSGYWYPMRRFSPQNGIAQDEFVDGASFDLVVALYEFDERLRHSVFIELDRVELAIQTRLGHELGRLDPLIYLDPQRLGARASQRGKGERTVHEVWIGKYQSALKASKEDFVAHHNSKYGGTLPIWAAVEVMDWGMLSYLYGMSPNIVRKRIAEPCGLTGPQLESWLKSLNILRNYAAHHARMFNRVYDIKPKLNNDPKLTPVANRMNRVFGQLSMIQYLHHQLGLSQADRLTRLFNTYPHNPIVPLSRTGAPENWQELALWVP | not soluble |
| MTGSCSDLLGFQYNNTVISSATLQETGTLTVANKPIGAHCLVKGYMDQHVSPVDGQTYQIGFEMRLPIDWNGRFLYQGNGGTDGNLVPATGQVGSGGPLTNALHDGFAIISSDAGHNASQNPMFGLDPQARINYGYGAITKLTPMAKNLIKAAYGKLPDRSYAGGTSNGGRHAMIAATRLGDQYDGILASTPGFHLPRAAAAQLYTAQQLRRVATDENDLSTALTLPERKVLAKAILDRCDALDGVTDGLVQDVEACRTAFDIHKHVTVCSSTRDGTCLSTEQIDVLANIYRGPVNSAGQALYATQPFDPGLVGSNWASWKFESSVGTARDPVAVGILFQVPPDPTVTQNSRQFALNFNFDTDYPKLSATNDVYTESSMSFMMPPDELNLDKLRNHGGKMIVVQGTADGVFSVDDTQNWYDQLLQHYKNDAKGTAPEFARFFRVPGMNHTRDGIATDQFDALTALVNWVEYGQAPDKIIATARGAGNPSGQVNTEIPQDWAPDRTRPLCPYPLIARYNGQGDLEHHHHHH | not soluble |
| MTHAPTTTPLRTAAKLLAAGAAALTLNSCAYDGIKVIVINMFQGEAQPFIDRYDLKEKVYIAGLSPDAPNLLCNYDGICQVTTGMGYANAAATLSALLYRSKLDLTQTYFVIAGIAGIDPGQGTVGSAAWARYAVDYGLSHEIDAREMPAAWPYGYFGIGTKGPGEKPPMNYRTEVFRLNEALLQRAYALSKPVTLEDSPEAIAFRKHYAYAPANQPPAVIQCDVASADTWWAGRNLGQRARDWTKTMTDGKGTYCTTAQEDNATLEVLARGARAGKVDFSRVALLRTGSDFDRPYDGQSAADGLVNYAQQGGFVPATHNLVNAAKPLLDDIVLRWPQWAQGVPANLEHHHHHH | not soluble |
| MTHNHHHQAVDNLLNVFSRASHDLTVVHSKLDKEFQQMYPANANPMKLIQRIKKLQEDVTLLKHQCLDLLSAKQDLIDKAQTTLVGNCNLIQKMNASLGESTNGDTDDALADFNQIIDEWTMQVRSRTVGETEDADKEDINKMLFSAICHTN | soluble |
| MTHPFEPFFDKDSKILILGSFPSIKSRQDGFYYQHPRNRFWPILETLFNAKLENITEQQAFLRKKHIALWDVLQSCKIKNSDDKTISYAKANDLNLILSQTKIQAIFTTGQSAYRFFVKFHPRLEAIALPSTSPANLNFSFEQLLQNYEIIKKFTKLEHHHHHH | not soluble |
| MTHSKDKKSHAFKGIGEKLNPTIYQVRFMKLDEPIRFESFPELKELGDWLSTSTHMWSCHSTMYKYNREEFEKKFLEITKLTADHVLISTGGVGFNFMSPGWRNSL | not soluble |
| MTIFEKNVIEFVTVAAEFCAFLERAEHMKRKAFVDTSLKILPLLYLKASLLPKCETIGDEAPETYVTEEIYEILRINLAGLMGEKDDYLDVFVQDMVYSDQPIKKSVSEDLADIYQDIKDFIFVFQLGLNETMNDSLAICQENFGLLWGQKLVNTLRALHDVKYLEHHHHHH | soluble |
| MTIGIIGSGALGSGIARILASKGISAIISNSRGPESLASLVRELGGSIKAGTAEEAARADIVFAAVRWVDAEKVLSSLPAWEGRIVIDATNPVEFIDPDSPDANDPTNPLAAYGIKAVDLHGKYSSEIFRQFVPGARVVKAFNHLDANVFSAPEVTGGKRVLFYSGDDAAAKTEVRKIIEDTGFVPVDLGTLDVGGPLASLPFGPLAAQNFIRVLEHHHHHH | soluble |
| MTIIKYIKFVVIIVIVTIVFSCSKNEAGNSEYDPSLPISLTDFFPIQGGMATRMVIEGANFGTDLSQIKVFFNQKEASILNVKNSIIYLLVPKLPGNDCIVTVKVGNQEARFTRNFQYIENYSVTTIAGQPGTNLFVEGTLAAAQFGPVQHLAIDDENNLFITERNGSDGKGTCSVLNEESGTVTFLFKASDNLNVPTVNAQTQNVYIPLDGGYTFYELNPVNQWIAKSRLVLHPSKEQQEAGMDDFEINWKHSLAFSRYDNMIYTRSYGGDLIKVDPETRVGQKIGNFFPNTDSFIVAHPTQPEILYIAYAAKHVIYTYNIETGEHKLFAGAFGQSGWNDGIATDAEFNSPRQMSLDMEGNIYIADSGNHCIRMIDKNGIVTTPIGQPGEAGYADGSPDMALLNDPRGVAVNSEGDVYIADLGNRCIRKLTLQLEHHHHHH | not soluble |
| MTIKNVICDIDGVLMHDNVAVPGAAEFLHGIMDKGLPLVLLTNYPSQTGQDLANRFATAGVDVPDSVFYTSAMATADFLRRQEGKKAYVVGEGALIHELYKAGFTITDVNPDFVIVGETRSYNWDMMHKAAYFVANGARFIATNPDTHGRGFYPACGALCAGIEKISGRKPFYVGKPSPWIIRAALNKMQAHSEETVIVGDNLRTDILAGFQAGLETILVLSGVSSLDDIDSMPFRPSWIYPSVAEIDVILEHHHHHH | not soluble |

Reference: the DeepSol protein solubility set
